Target: T1, p82 (r82; Teb1-like RPA1-related telomerase holoenzyme subunit p82) (Tetrahymena thermophila, UniProt D2CVN6 1-701)
T1 sequence: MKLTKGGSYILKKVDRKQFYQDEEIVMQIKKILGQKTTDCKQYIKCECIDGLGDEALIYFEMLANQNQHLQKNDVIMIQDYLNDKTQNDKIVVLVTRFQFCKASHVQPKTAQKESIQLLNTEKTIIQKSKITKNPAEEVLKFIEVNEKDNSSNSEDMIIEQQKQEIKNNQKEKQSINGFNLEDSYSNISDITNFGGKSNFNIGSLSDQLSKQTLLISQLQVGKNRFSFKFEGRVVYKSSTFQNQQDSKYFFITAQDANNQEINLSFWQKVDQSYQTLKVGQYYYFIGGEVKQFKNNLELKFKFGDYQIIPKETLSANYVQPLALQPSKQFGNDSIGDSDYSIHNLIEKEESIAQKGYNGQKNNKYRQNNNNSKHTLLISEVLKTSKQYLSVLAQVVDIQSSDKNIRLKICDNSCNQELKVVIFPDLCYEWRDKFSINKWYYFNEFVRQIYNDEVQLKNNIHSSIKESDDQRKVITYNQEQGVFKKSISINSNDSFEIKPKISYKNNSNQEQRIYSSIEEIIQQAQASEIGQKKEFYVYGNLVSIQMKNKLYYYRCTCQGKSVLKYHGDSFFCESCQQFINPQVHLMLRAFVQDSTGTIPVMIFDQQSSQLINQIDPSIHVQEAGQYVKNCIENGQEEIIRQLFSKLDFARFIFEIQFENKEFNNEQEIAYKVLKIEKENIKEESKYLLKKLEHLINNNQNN
Assay: EMSA

B1: dsTelo3 (dsDNA)
DNA 1: CCCCAACCCCAACCCCAA
DNA 2: TTGGGGTTGGGGTTGGGG
- binding result: no binding
